Results on six molecules are retold here after patent publication US20090202429A1 (TRUSTEES OF COLUMBIA UNIVERSITY IN THE CITY OF NEW YORK, published 2009).

Substitutions are numbered along the chain they refer to. Names and notes keep the numbering of the source.

B1: recombinant human VWF-A1 protein with 1309I>V and 1324G>S (ligand)
chain: QEPGGLVVPPTDAPVSPTTLYVEDISEPPLHDFYCSRLLDLVFLLDGSSRLSEAEFEVLKAFVVDMMERLRVSQKWVRVAVVEYHDSSHAYIGLKDRKRPSELRRIASQVKYAGSQVASTSEVLKYTLFQIFSKIDRPEASRIALLLMASQEPQRMSRNFVRYVQGLKKKKVIVIPVGIGPHANLKQIRLIEKQAPENKAFVLSSVDELEQQRDEIVSYLCDLAPEAPPPTLPP
notes: also called doubly mutated protein; not shown: amino-terminal vector-derived tag with 6x histidine
B2: recombinant human VWF-A1 protein with 1309I>V and 1326H>R (ligand)
chain: B1 chain with S87G, H89R
notes: as for B1
B3: murine platelet glycoprotein Ib alpha (GPIb alpha), on mouse platelets (receptor, UniProt O35930 17-734, looked up)
chain: QHTCSISKVTSLLEVNCENKKLTALPADLPADTGILHLGENQLGTFSTASLVHFTHLTYLYLDRCELTSLQTNGKLIKLENLDLSHNNLKSLPSLGWALPALTTLDVSFNKLGSLSPGVLDGLSQLQELYLQNNDLKSLPPGLLLPTTKLKKLNLANNKLRELPSGLLDGLEDLDTLYLQRNWLRTIPKGFFGTLLLPFVFLHANSWYCDCEILYFRHWLQENANNVYLWKQGVDVKDTTPNVASVRCANLDNAPVYSYPGKGCPTSSGDTDYDDYDDIPDVPATRTEVKFSTNTKVHTTHWSLLAAAPSTSQDSQMISLPPTHKPTKKQSTFIHTQSPGFTTLPETMESNPTFYSLKLNTVLIPSPTTLEPTSTQATPEPNIQPMLTTSTLTTPEHSTTPVPTTTILTTPEHSTIPVPTTAILTTPKPSTIPVPTTATLTTLEPSTTPVPTTATLTTPEPSTTLVPTTATLTTPEHSTTPVPTTATLTTPEHSTTPVPTTATLTTPEPSTTLTNLVSTISPVLTTTLTTPESTPIETILEQFFTTELTLLPTLESTTTIIPEQNSFLNLPEVALVSSDTSESSPFLNSDFCCFLPLGFYVLGLLWLLFASVVLILLLTWTWHVTPHSLDMEQSAALATSTHTTSLEVQRARQVTMPRAWLLFLQGSLPTFRSSLFLWVRPNGRVGPLVAGRRPSALSQGRGQDLLGTVGIRYSGHSL
notes: whole, on cells; also called murine GPIb alpha; murine platelets
B4: recombinant murine VWF-A1 protein, wild type (amino acid residues 1238 to 1471, made in bacteria, His tag) (ligand)
chain: QEPGGLVAPPTDAPVSSTTPYVEDTPEPPLHNFYCSKLLDLVFLLDGSSMLSEAEFEVLKAFVVGMMERLHISQKRIRVAVVEYHDGSRAYLELKARKRPSELRRITSQIKYTGSQVASTSEVLKYTLFQIFGKIDRPEASHITLLLTASQEPPRMARNLVRYVQGLKKKKVIVIPVGIGPHASLKQIRLIEKQAPENKAFLLSGVDELEQRRDEIVSYLCDLAPEAPAPTQPP
modifications: single intra-chain disulfide bond between residues 1272 and 1458
notes: Treated as one molecule; also called M VWF-A1; mouse VWF-A1; not shown: amino-terminal 10 amino acids (including 6x histidine) contributed by the vector pQE9
B5: recombinant murine VWF-A1 protein with the type 2B mutation I1309V (1309I>V) (ligand)
chain: B4 chain with I72V
notes: also called M VWF-A1 protein containing the type 2B mutation I1309V; not shown: amino-terminal vector-derived tag with 6x histidine
B6: recombinant murine VWF-A1 protein with 1326R>H (ligand)
chain: B4 chain with R89H
notes: also called mutated murine protein; not shown: amino-terminal vector-derived tag with 6x histidine

Assay [1] addresses T1, human platelet glycoprotein Ib alpha (GPIb alpha), on human platelets (human, UniProt P07359 17-652).
T1 construct: whole, on cells; also called GPIbα; human GPIb alpha
Kind of assay: human platelets attached to coated human VWF-A1 against wall shear rate.

The target in assay [2] is T1, human platelet glycoprotein Ib alpha …. Kind of assay: interaction times of VWF-A1 coated beads on surface-immobilized platelets, wall shear stress 1 dyn cm^-2. As for the experimental part: The duration of these interactions are measured by recording images from a Nikon X60 DIC objective (oil immersion) viewed at a frame rate of 235 fps (Speed Vision Technologies, San Diego, Calif.) and subjected to wall shear stresses (WSS) ranging from 0.5 to 3.0 dyn cm⁻². The cellular off-rates are determined by plotting the natural log of the number of VWF-A1 coated microspheres that interacted as a function of time after the initiation of tethering, the slope of the line=−koff (s⁻¹) which is the inverse of the bond lifetime. The force acting on the tether bond was calculated from force balance equations as stated above and koff plotted as a function of these forces.

Assay [3] concerns the target T2, murine plasma VWF with the 1326R>H mutation (from homozygous VWF 1326R>H knock-in mice) (mouse, UniProt Q8CIZ8 764-2813).
T2 construct: Plasma-derived multimeric VWF; also called R1326H mutant mouse VWF; mutant mouse plasma VWF
The experiment in a line: not told at this place.

Assay [4] concerns the target B3. The experiment in a line: panel B: coated beads on surface-immobilized murine platelets in flow, ln of bead tethering events against time; shear stress 0.5 dyn cm-2; R2 0.96. How it is done:
(§1) The cellular off-rates are determined by plotting the natural log of the number of VWF-A1 coated microspheres that interacted as a function of time after the initiation of tethering, the slope of the line=−koff (s⁻¹) which is the inverse of the bond lifetime. The force acting on the tether bond was calculated from force balance equations as stated above and koff plotted as a function of these forces.
(§2) The use of beads with one uniform size and shape permits determination of the relationship between wall shear stress and the force directly acting on the GPIb alpha-VWF-A1 tether bond (Fb), a parameter difficult to estimate for discoid-shaped objects such as platelets. […] This antibody was made by immunizing Fischer 344 rats (3-4 months old) with recombinant WT protein. […] Spleens from animals with the highest antibody titers were harvested and splenocytes fused with Sp2/0 mouse myeloma cells (54).

Assay [5] has as its target B3. The experiment in a line: panel B: coated beads on surface-immobilized murine platelets in flow, ln of bead tethering events against time; shear stress 2.0 dyn cm-2; R2 0.95. As for the experimental part: as §1, §2
Assay [6] has as its target B3. The experiment in a line: panel B: coated beads on surface-immobilized murine platelets in flow, ln of bead tethering events against time; shear stress 3.0 dyn cm-2; R2 0.98. As for the experimental part: as §1, §2
Assay [7] concerns the target B3. The experiment in a line: coated beads on surface-immobilized murine platelets in flow, ln of bead tethering events against time; shear stress 2.0 dyn cm-2; R2 0.98. As for the experimental part: as §1, §2
Assay [8] has as its target B3. The experiment in a line: coated beads on surface-immobilized murine platelets in flow, ln of bead tethering events against time; shear stress 0.5 dyn cm-2; R2 0.96. How it is done: as §1, §2
The target in assay [9] is B3. Kind of assay: coated beads on surface-immobilized murine platelets in flow, ln of bead tethering events against time; shear stress 1.0 dyn cm-2; R2 0.95. As for the experimental part:
as §1, §2

Assay [10] has as its target B3. The experiment in a line: cell-based or functional assay.
Assay [11] deals with T1, human platelet glycoprotein Ib alpha …. The experiment in a line: human platelets perfused over coated mutant VWF-A1, wall shear rate 800 s-1; the sheet states that R563H corresponds to R1326H.
The target in assay [12] is B3. The experiment in a line: platelet adhesion to coated recombinant VWF-A1, flow chamber, 800 s^-1.

T1 sequence (P07359 17-652): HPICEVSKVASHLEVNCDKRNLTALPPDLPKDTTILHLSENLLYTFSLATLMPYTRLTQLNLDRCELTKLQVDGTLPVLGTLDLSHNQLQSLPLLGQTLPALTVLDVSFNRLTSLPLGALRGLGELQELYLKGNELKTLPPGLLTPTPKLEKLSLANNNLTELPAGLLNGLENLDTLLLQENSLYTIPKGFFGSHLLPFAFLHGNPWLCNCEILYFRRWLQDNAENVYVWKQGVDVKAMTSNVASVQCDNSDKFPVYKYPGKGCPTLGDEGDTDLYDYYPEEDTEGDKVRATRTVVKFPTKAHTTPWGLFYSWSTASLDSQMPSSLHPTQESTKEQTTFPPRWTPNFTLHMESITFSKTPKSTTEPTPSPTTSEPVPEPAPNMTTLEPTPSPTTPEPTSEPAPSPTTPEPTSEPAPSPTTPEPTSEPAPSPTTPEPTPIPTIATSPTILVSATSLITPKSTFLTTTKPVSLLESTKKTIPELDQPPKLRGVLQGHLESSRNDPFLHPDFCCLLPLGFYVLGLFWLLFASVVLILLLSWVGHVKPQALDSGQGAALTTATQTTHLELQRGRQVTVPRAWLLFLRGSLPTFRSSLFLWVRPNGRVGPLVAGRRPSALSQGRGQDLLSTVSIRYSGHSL
T2 sequence (Q8CIZ8 other isoform, or with tags, fused parts or gaps limits assumed): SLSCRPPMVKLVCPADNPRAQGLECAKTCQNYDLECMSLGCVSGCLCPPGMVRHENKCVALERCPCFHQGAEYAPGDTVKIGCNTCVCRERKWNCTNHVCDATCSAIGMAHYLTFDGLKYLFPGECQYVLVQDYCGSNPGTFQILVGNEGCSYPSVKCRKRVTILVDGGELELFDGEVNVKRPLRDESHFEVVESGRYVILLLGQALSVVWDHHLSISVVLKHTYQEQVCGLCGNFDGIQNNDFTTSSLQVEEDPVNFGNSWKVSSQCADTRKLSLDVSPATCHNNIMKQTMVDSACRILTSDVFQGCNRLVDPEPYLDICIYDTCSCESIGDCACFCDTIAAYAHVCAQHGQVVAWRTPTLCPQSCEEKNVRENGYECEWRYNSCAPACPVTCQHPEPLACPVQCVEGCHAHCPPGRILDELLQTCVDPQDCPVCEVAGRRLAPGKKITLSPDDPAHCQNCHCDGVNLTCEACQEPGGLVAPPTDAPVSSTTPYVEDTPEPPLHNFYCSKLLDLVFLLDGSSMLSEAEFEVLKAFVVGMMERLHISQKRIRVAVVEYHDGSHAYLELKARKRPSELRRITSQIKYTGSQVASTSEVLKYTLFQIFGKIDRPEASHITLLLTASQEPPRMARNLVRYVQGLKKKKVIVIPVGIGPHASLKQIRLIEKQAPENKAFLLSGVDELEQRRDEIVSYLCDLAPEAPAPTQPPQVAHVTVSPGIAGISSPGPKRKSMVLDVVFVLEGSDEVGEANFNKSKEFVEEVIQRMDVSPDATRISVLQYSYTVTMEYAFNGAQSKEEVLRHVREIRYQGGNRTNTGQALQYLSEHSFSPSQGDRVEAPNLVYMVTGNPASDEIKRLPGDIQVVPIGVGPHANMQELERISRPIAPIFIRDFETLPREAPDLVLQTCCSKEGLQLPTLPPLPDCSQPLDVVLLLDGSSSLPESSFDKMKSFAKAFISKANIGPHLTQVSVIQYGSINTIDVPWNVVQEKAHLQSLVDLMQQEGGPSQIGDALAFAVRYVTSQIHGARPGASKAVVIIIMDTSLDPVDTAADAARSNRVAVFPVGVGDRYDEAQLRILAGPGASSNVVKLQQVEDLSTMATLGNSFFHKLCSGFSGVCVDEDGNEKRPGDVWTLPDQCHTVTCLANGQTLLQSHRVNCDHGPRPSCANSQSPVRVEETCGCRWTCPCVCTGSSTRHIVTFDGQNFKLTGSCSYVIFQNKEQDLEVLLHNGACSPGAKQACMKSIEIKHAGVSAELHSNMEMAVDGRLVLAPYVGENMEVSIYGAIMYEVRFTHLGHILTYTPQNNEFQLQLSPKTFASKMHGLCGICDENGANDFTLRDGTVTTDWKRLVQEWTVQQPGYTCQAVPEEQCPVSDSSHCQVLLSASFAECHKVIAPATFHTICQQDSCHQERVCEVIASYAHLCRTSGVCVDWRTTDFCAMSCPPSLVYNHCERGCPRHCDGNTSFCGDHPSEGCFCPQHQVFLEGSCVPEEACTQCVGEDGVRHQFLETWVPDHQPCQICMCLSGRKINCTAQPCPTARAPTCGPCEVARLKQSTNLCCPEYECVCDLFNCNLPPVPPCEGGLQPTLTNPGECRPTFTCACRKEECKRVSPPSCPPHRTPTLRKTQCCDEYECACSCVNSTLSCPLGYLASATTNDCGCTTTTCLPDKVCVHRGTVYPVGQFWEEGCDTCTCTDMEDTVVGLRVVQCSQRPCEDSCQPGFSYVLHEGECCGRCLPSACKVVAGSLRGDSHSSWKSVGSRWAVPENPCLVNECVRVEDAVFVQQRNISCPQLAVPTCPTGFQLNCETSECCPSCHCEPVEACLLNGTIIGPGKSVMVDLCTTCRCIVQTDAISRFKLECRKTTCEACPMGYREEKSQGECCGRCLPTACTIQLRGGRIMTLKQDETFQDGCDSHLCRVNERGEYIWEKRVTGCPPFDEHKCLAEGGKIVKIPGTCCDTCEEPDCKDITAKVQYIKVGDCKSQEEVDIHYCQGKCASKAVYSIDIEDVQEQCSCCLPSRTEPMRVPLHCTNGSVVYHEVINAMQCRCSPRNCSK

As for B1, the binding result in assay [1] is listed as “no binding”.
On to B2, for which, in [2], the “fold reduction in koff against the single mutant 1326H>R” value is 2 fold and the koff was determined as 8.5 s⁻¹.
On to B3, for which the binding result in assay [3] is given as “binds”.
B4: the koff in [4] was 5.1 s⁻¹; in assay [5], 8.4 s⁻¹; in [6], 9.9 s⁻¹.
With B5, the koff in assay [7] was found to be 1.6 s⁻¹; in [8] it was 0.7 s⁻¹; in assay [9] it was 0.9 s⁻¹.
Turning to B6, the “translocation velocities of murine platelets, fold increase against the WT mouse protein, 800 s^-1” value in [10] was approximately 7 fold. In addition, in assay [11], the binding result is given as “binds”. For the same molecule, the “fold reduction of platelet adhesion against the WT mouse protein” value in assay [12] is approximately 5 fold.

For orientation: koff means the rate constant with which the complex falls apart.
